± gives the uncertainty stated by the source.
Assay: self-splicing fitness, log relative to wild type (ln ratio); higher = more splicing; Tetrahymena group I intron in knt gene, E. coli kanamycin selection, DiMSum; sequences stand for … in CUCUCU…GGAGGGAAAAGUUAUCAGGCAUGCACCUGGUAGCUAGUCUUUAAACCAAUAGAUUGCAUCGGUUUAAAAGGCAAGACCGUCAAAUUGCGGGAAAGGGGUCAACAGCCGUUCAGUACCAAGUCUCAGGGGAAACUUUGAGAUGGCCUUGCAAAGGGUAUGGUAAUAAGCUGACGGACAUGGUCCUAACCACGCAGCCAAGUCCUAAGUCAACAGAUCUUCUGUUGAUAUGGAUGCAGUUCACAGACUAAAUGUCGGUCGGGGAAGAUGUAUUCUUCUCAUAAGAUAUAGUCGGACCUCUCCUUAAUGGGAGCUAGCGGAUGAAGUGAUGCAACACUGGAGCCGCUGGGAACUAAUUUGUAUGCGAAAGUAUAUUGAUUAGUUUUGGAGUACUCGUGGUCG
How it was run: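 Fitness was computed with DiMSum as the error-weighted combination of replicate fold changes, kanamycin versus none, each normalised to wild type. The library randomised all eight intron nucleotides of the P1ex region, with the intron placed in the knt kanamycin-resistance gene on pET-22b(+) in E. coli BL21(DE3). Six replicate transformations were grown overnight at 37°C or 30°C on LB agar with or without 25 μg/mL kanamycin, plus 100 μg/mL carbenicillin, 50 μM IPTG and 0.2% rhamnose. Pooled colonies were amplicon-sequenced on an Illumina HiSeq 2500.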

Row | Sequence | self-splicing fitness (ln) (30 °C) | self-splicing fitness (ln) (37 °C)
1 | CUGAAGCAAUAUUACGGGUC | -3.92 ± 0.4 | 
2 | UGUAAGCAAUAUUACGACCG | 0.431 ± 0.12 | 0.133 ± 0.18
3 | CUAAAGCAAUAUUACGCCAA | -4.58 ± 0.32 | -3.1 ± 0.37
4 | UCUGAGCAAUAUUACGAUUA | -1.85 ± 0.17 | -1.49 ± 0.21
5 | UCAUAGCAAUAUUACGACGG | -0.375 ± 0.11 | -0.184 ± 0.13
6 | CAGUAGCAAUAUUACGCUUG | -0.882 ± 0.13 | -0.797 ± 0.22
7 | ACUGAGCAAUAUUACGGCUA | -1.61 ± 0.15 | -1.63 ± 0.16
8 | UACUAGCAAUAUUACGUGAA | -2.19 ± 0.11 | -1.18 ± 0.13
9 | AGGCAGCAAUAUUACGGACU | -0.344 ± 0.079 | 0.146 ± 0.093
10 | AAAGAGCAAUAUUACGAGAC | -3.51 ± 0.35 | -2.11 ± 0.27
11 | GGUCAGCAAUAUUACGCGCG | -0.298 ± 0.092 | -0.546 ± 0.11
12 | CACAAGCAAUAUUACGACAG | 0.0654 ± 0.065 | 0.61 ± 0.083
13 | GUAAAGCAAUAUUACGGAGG | -3.29 ± 0.37 | -2.45 ± 0.38
14 | GUUGAGCAAUAUUACGGUUA | -1.88 ± 0.28 | -2.09 ± 0.24
15 | AUCGAGCAAUAUUACGGAAG |  | -0.716 ± 0.16
16 | GUAGAGCAAUAUUACGCGUG | -1.18 ± 0.11 | -0.777 ± 0.18
17 | CAGAAGCAAUAUUACGUCGC | -3.55 ± 0.23 | -2.76 ± 0.28
18 | AGAUAGCAAUAUUACGCUAA | -1.46 ± 0.15 | -0.455 ± 0.15
19 | UUAUAGCAAUAUUACGAGAG |  | -0.556 ± 0.26
20 | UGACAGCAAUAUUACGCAAU | -2.38 ± 0.12 | -1.84 ± 0.16
21 | GACCAGCAAUAUUACGCGCU | -1.68 ± 0.12 | -0.412 ± 0.12
22 | ACGCAGCAAUAUUACGGACU | -0.613 ± 0.081 | 0.0817 ± 0.098
23 | UCUCAGCAAUAUUACGGGGG | -3.53 ± 0.27 | -2.02 ± 0.2
24 | GCAUAGCAAUAUUACGCUCA | -0.595 ± 0.12 | -0.211 ± 0.15
25 | AAUCAGCAAUAUUACGUAAU | -0.172 ± 0.059 | 0.204 ± 0.075

Row | Sequence | self-splicing fitness (ln) (30 °C) | self-splicing fitness (ln) (37 °C)
26 | UCUAAGCAAUAUUACGAAUG | -1.16 ± 0.095 | -0.995 ± 0.12
27 | GGAUAGCAAUAUUACGGUCU | -3.86 ± 0.4 | -1.99 ± 0.18
28 | UAAAAGCAAUAUUACGCCGU | -3.01 ± 0.21 | -2.1 ± 0.22
29 | AAUCAGCAAUAUUACGGGUG | -0.238 ± 0.044 | 0.275 ± 0.06
30 | UGGUAGCAAUAUUACGCUAA | -1.37 ± 0.14 | -0.667 ± 0.16
31 | CGGAAGCAAUAUUACGCAGA | -1.98 ± 0.33 | -2.01 ± 0.3
32 | AGUGAGCAAUAUUACGUCAU | -1.29 ± 0.14 | -2.29 ± 0.22
33 | AAAGAGCAAUAUUACGCACA |  | -0.789 ± 0.28
34 | UGCUAGCAAUAUUACGGAGG | -2.23 ± 0.14 | -1.13 ± 0.13
35 | CCGGAGCAAUAUUACGUUAG | -1.47 ± 0.078 | -0.769 ± 0.11
36 | GGAAAGCAAUAUUACGCCGA | -0.608 ± 0.34 | -0.354 ± 0.24
37 | CUGAAGCAAUAUUACGUUCA | -1.87 ± 0.11 | -0.567 ± 0.12
38 | GUAGAGCAAUAUUACGUGUC | -1.68 ± 0.094 | -0.37 ± 0.13
39 | CGCGAGCAAUAUUACGUUGC | -3.68 ± 0.3 | 
40 | CCUAAGCAAUAUUACGGGAC | -3.86 ± 0.23 | -2.7 ± 0.22
41 | CAGUAGCAAUAUUACGCCAC | -2.54 ± 0.3 | 
42 | CGACAGCAAUAUUACGGUCA | -0.168 ± 0.083 | 0.276 ± 0.1
43 | CGGAAGCAAUAUUACGGAAU | -2.11 ± 0.16 | -1.08 ± 0.19
44 | CACCAGCAAUAUUACGGAGA | -1.66 ± 0.11 | -2.16 ± 0.14
45 | AACGAGCAAUAUUACGCGCA | -1.28 ± 0.094 | -2.1 ± 0.12
46 | UAGAAGCAAUAUUACGCGCA | -0.327 ± 0.15 | 0.03 ± 0.18
47 | UUAGAGCAAUAUUACGUUUC | -3.04 ± 0.2 | 
48 | UCGAAGCAAUAUUACGACCG | -0.853 ± 0.12 | -0.898 ± 0.14
49 | AAGGAGCAAUAUUACGAAGA | -3.41 ± 0.29 | -3.13 ± 0.37
50 | UACAAGCAAUAUUACGGUUA | -0.0426 ± 0.052 | -0.221 ± 0.063

Row | Sequence | self-splicing fitness (ln) (30 °C) | self-splicing fitness (ln) (37 °C)
51 | UGUAAGCAAUAUUACGAAAU | -2.47 ± 0.18 | -0.0192 ± 0.17
52 | UUACAGCAAUAUUACGUUGU | -2.98 ± 0.13 | -2.57 ± 0.16
53 | AUAGAGCAAUAUUACGGUUU | -0.828 ± 0.071 | -0.331 ± 0.098
54 | GUGCAGCAAUAUUACGAUGC | -0.245 ± 0.11 | 0.208 ± 0.17
55 | AGGCAGCAAUAUUACGUAAC | -2.03 ± 0.12 | -0.934 ± 0.14
56 | CCACAGCAAUAUUACGAAGU | -3.69 ± 0.18 | -3.17 ± 0.21
57 | UAGGAGCAAUAUUACGCCGG | -2.07 ± 0.22 | -1.57 ± 0.3
58 | ACGCAGCAAUAUUACGGCUA | -0.12 ± 0.064 | -0.215 ± 0.075
59 | UUCAAGCAAUAUUACGGAAA | -1.83 ± 0.11 | -1.12 ± 0.1
60 | CUAUAGCAAUAUUACGAUGA | -1.92 ± 0.16 | -1.3 ± 0.17
61 | GUGAAGCAAUAUUACGCUAA | -1.25 ± 0.15 | -0.0384 ± 0.17
62 | GAUGAGCAAUAUUACGACGU | -1.09 ± 0.094 | -0.283 ± 0.11
63 | UUACAGCAAUAUUACGGAGA | -1.79 ± 0.1 | -1.11 ± 0.13
64 | GUUUAGCAAUAUUACGAGGC | -2.48 ± 0.24 | -2.45 ± 0.24
65 | GAAGAGCAAUAUUACGUUGA | -3.21 ± 0.19 | -2.63 ± 0.2
66 | AAUUAGCAAUAUUACGCUCG | 0.0366 ± 0.13 | 0.217 ± 0.16
67 | CGUUAGCAAUAUUACGUGUU | -4.58 ± 0.22 | -3.04 ± 0.17
68 | CGCGAGCAAUAUUACGCUGU | -2.6 ± 0.16 | -2.74 ± 0.31
69 | UAUAAGCAAUAUUACGUGUG | -0.923 ± 0.073 | -0.446 ± 0.088
70 | GUGAAGCAAUAUUACGGUUA | -0.24 ± 0.054 | 0.132 ± 0.086
71 | AUUCAGCAAUAUUACGUCGU | -0.283 ± 0.071 | 0.553 ± 0.085
72 | CAUCAGCAAUAUUACGAGUA | -2.12 ± 0.12 | -1.47 ± 0.095
73 | UUUAAGCAAUAUUACGGGGG | -2.49 ± 0.22 | -2.04 ± 0.18
74 | UUCGAGCAAUAUUACGGAUC |  | -1.85 ± 0.48
75 | UAACAGCAAUAUUACGAUUU | -1.47 ± 0.056 | -0.218 ± 0.065

Row | Sequence | self-splicing fitness (ln) (30 °C) | self-splicing fitness (ln) (37 °C)
76 | ACUGAGCAAUAUUACGGGUG | -2.49 ± 0.15 | -1.38 ± 0.15
77 | UUGGAGCAAUAUUACGUUAG | -3.62 ± 0.2 | -1.49 ± 0.22
78 | GCGGAGCAAUAUUACGAAUC | -2.17 ± 0.44 | 
79 | AUCAAGCAAUAUUACGCGUA | -1.02 ± 0.086 | -0.375 ± 0.08
80 | GCAUAGCAAUAUUACGGAUG | -3.15 ± 0.15 | -0.657 ± 0.13
81 | CAGAAGCAAUAUUACGCGAG | -2.62 ± 0.097 | -1.49 ± 0.096
82 | CGACAGCAAUAUUACGGCGC | -3.37 ± 0.24 | -0.977 ± 0.15
83 | UUUCAGCAAUAUUACGUGAU | -2.58 ± 0.13 | -1.8 ± 0.18
84 | UCUCAGCAAUAUUACGCUGC | -3.83 ± 0.21 | -2.06 ± 0.17
85 | GAAUAGCAAUAUUACGGCUG | -0.443 ± 0.083 | -0.941 ± 0.1
86 | UUGAAGCAAUAUUACGGAUU | -1.18 ± 0.081 | -0.94 ± 0.12
87 | GUUUAGCAAUAUUACGCCCU | -0.651 ± 0.098 | -0.533 ± 0.11
88 | GAGUAGCAAUAUUACGCAUA | -2.47 ± 0.25 | -1.54 ± 0.24
89 | GAUUAGCAAUAUUACGUACG | -1.1 ± 0.13 | 0.136 ± 0.15
90 | CAUGAGCAAUAUUACGUGGG | -4.29 ± 0.27 | -3.23 ± 0.32
91 | CACUAGCAAUAUUACGAACA | -3.04 ± 0.42 | -2.83 ± 0.3
92 | UCAUAGCAAUAUUACGAUAC | -3.23 ± 0.38 | 
93 | CUUAAGCAAUAUUACGGAUA | -1.88 ± 0.36 | 
94 | UAAUAGCAAUAUUACGGCUG | -0.00933 ± 0.11 | -0.0273 ± 0.16
95 | UGCCAGCAAUAUUACGUCCG | -0.88 ± 0.073 | 0.0267 ± 0.11
96 | CACAAGCAAUAUUACGAAAA | -3.15 ± 0.17 | -2.57 ± 0.24
97 | GCUGAGCAAUAUUACGAGAC | -3.06 ± 0.36 | 0.142 ± 0.23
98 | CGGUAGCAAUAUUACGUCUU | -0.667 ± 0.1 | 0.17 ± 0.12

From the supplement of paper PMC7877785
